Assay results published in US20230203142A1 (published 2023).

T1: NDPK-A peptide 5 (human)
T1 peptide: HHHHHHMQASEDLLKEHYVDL

T2: NDPK-A peptide 6 (human)
T2 peptide: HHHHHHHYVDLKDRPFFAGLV

T3: NDPK-A peptide 7 (human)
T3 peptide: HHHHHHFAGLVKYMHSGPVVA

T4: NDPK-A peptide 9 (human)
T4 peptide: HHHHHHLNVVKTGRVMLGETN

T5: NDPK-A peptide 10 (human)
T5 peptide: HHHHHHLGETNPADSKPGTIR

T6: NDPK-A peptide 11 (human)
T6 peptide: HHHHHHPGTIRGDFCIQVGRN

T7: NDPK-A peptide 12 (human)
T7 peptide: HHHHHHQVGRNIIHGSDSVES

T8: NDPK-A peptide 13 (human)
T8 peptide: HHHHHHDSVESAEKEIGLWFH

T9: NDPK-A peptide 14 (human)
T9 peptide: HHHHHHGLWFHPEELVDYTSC

T10: NDPK-A peptide 15 (human)
T10 peptide: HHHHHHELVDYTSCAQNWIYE

T11: NDPK-A peptide 1 (human)
T11 peptide: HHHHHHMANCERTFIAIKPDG

T12: NDPK-A peptide 4 (human)
T12 peptide: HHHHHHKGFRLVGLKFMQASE

T13: NDPK-A peptide 8 (human)
T13 peptide: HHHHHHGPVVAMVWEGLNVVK

T14: NDPK-A peptide 2 (human)
T14 peptide: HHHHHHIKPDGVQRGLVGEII

T15: NDPK-A peptide 3 (human)
T15 peptide: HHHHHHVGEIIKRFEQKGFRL

B1: CA33 (a-Ab) monoclonal antibody (antibody)
heavy: QSVEESGGRLVTPGTPLTLTCTVSGFSLSTYYMSWVRQAPGKGLEWIGIIYPSGSTYCASWAKGRFTISKASTTVDLKITSPTTEDTATYFCARPDNDGTSGYLSGFGLWGQGLVTVSSAKTTPPSVYPLAPGSAAQTNSMVTLGCLVKGYFPEPVTVTWNSGSLSSGVHTFPAVLQSDLYTLSSSVTVPSSTWPSETVTCNVAHPASSTKVDKKIVPRDC
light: DVVMTQTPASVSEPVGGTVTIKCGASEDISRYLVWYQQKPGQPPKRLIYKASTLASGVPSRFKGSGSGTDFTLTISDLECDDAATYYCQCTYGTYAGSFFYSFGGGTEVVVERTDAAPTVSIFPPSSEQLTSGGASVVCFLNNFYPKDINVKWKIDGSERQNGVLNSWTDQDSKDCTYSMSSTLTLTKDEYERHNSYTCEATHKTSTSPIVKSFNRNEC
notes: Described as a monoclonal antibody; also called active antibody
B2: recombinant human FABP4 (fatty acid binding protein 4) (other)
chain: CDAFVGTWKLVSSENFDDYMKEVGVGFATRKVAGMAKPNMIISVNGDVITIKSESTFKNTEISFILGQEFDEVTADDRKVKSTITLDGGVLVHVQKWDGKSTTIKRKREDDKLVVECVMKGVTSTRVYERA
notes: Recombinant human FABP4 produced in-house; also called aP2; hormonal FABP4

Legend:
[1] = biological target: T16, human ADK (adenosine kinase), recombinant (human, UniProt P55263 2-362); experiment: MST, ADK labelled, antibody unlabelled
T16 construct: Bought protein (Novus Biologicals NBP1-44382 or R&D Systems 8024-AK-025); It was fluorescently labelled in MST
Method: To perform this technique, proteins were desalted and buffer exchanged into PBS prior to labeling. Desalting was performed using Zeba Spin Desalting Columns (Thermo Scientific, product number 89882, 0.5 ml volume) in a volume of 0.1 ml according to the manufacturer's instructions. Human NDPK-A (Acro Biosystems, product number NM1-H5147) was prepared in PBS to a stock concentration of 0.4 mg/ml. Human ADK (Novus Biologicals, product number NBP1-44382 or R&D Systems, product number 8024-AK-025) was purchased at a stock concentration of 0.5 mg/ml and buffer exchanged into PBS. Protein concentration used for labeling was 20 uM. Experiments were conducted independently with each of NDPK and ADK labeled with each kit (i.e., experiments were performed with lysine-labeled, cysteine-labeled, and His-labeled versions of each protein to confirm the site of labeling was not influencing detected interaction). Labeling kits were: Monolith Protein Labeling Kit RED-NETS (Amine Reactive; Product number MO-L001), Monolith Protein Labeling Kit RED-MALEIMIDE (Cysteine Reactive; Product number: MO-L004), and Monolith His-Tag Labeling Kit RED-tris-NTA (Product number: MO-L008). […] Concentration of labeled proteins ranged from 12 nM to 20 nM, as determined by MST quantification to obtain a fluorescence intensity of ˜350 from each capillary tube. […]

[2] = biological target: T17, human NDPK-A (nucleoside diphosphate kinase A), full-length recombinant (human, UniProt P15531 2-152); experiment: MST, NDPK labelled, antibody unlabelled
T17 construct: Bought protein (Acro Biosystems NM1-H5147); It was fluorescently labelled (lysine, cysteine or His-tag dye) in MST; also called nm23
Method: (§1) Human NDPK-A (Acro Biosystems, product number NM1-H5147) was prepared in PBS to a stock concentration of 0.4 mg/ml. Human ADK (Novus Biologicals, product number NBP1-44382 or R&D Systems, product number 8024-AK-025) was purchased at a stock concentration of 0.5 mg/ml and buffer exchanged into PBS. Protein concentration used for labeling was 20 uM. Experiments were conducted independently with each of NDPK and ADK labeled with each kit (i.e., experiments were performed with lysine-labeled, cysteine-labeled, and His-labeled versions of each protein to confirm the site of labeling was not influencing detected interaction). […] Concentration of labeled proteins ranged from 12 nM to 20 nM, as determined by MST quantification to obtain a fluorescence intensity of ˜350 from each capillary tube. […]
(§2) To further confirm the formation of the proposed complex, GST-tagged NDPK (GST-NDPK) was generated and immunoprecipitation experiments were performed to investigate the interaction of each proposed component with NDPK. Interaction between all three components of the proposed complex, as well as with the complex and a-Ab (FIG. 4M) were readily identified.

NDPK-A peptide 5 = biological target: T1, NDPK-A peptide 5; experiment: MST, His-tag-labelled peptide against a-Ab
NDPK-A peptide 6 = biological target: T2, NDPK-A peptide 6; experiment: MST, His-tag-labelled peptide against a-Ab
NDPK-A peptide 7 = biological target: T3, NDPK-A peptide 7; experiment: MST, His-tag-labelled peptide against a-Ab
NDPK-A peptide 9 = biological target: T4, NDPK-A peptide 9; experiment: MST, His-tag-labelled peptide against a-Ab
NDPK-A peptide 10 = biological target: T5, NDPK-A peptide 10; experiment: MST, His-tag-labelled peptide against a-Ab
NDPK-A peptide 11 = biological target: T6, NDPK-A peptide 11; experiment: MST, His-tag-labelled peptide against a-Ab
NDPK-A peptide 12 = biological target: T7, NDPK-A peptide 12; experiment: MST, His-tag-labelled peptide against a-Ab
NDPK-A peptide 13 = biological target: T8, NDPK-A peptide 13; experiment: MST, His-tag-labelled peptide against a-Ab
NDPK-A peptide 14 = biological target: T9, NDPK-A peptide 14; experiment: MST, His-tag-labelled peptide against a-Ab
NDPK-A peptide 15 = biological target: T10, NDPK-A peptide 15; experiment: MST, His-tag-labelled peptide against a-Ab
NDPK-A peptide 1 = biological target: T11, NDPK-A peptide 1; experiment: MST, His-tag-labelled peptide against a-Ab
NDPK-A peptide 4 = biological target: T12, NDPK-A peptide 4; experiment: MST, His-tag-labelled peptide against a-Ab
NDPK-A peptide 8 = biological target: T13, NDPK-A peptide 8; experiment: MST, His-tagged peptide; column head prints 'Binding Affinity (Ka)'
NDPK-A peptide 2 = biological target: T14, NDPK-A peptide 2; experiment: as above
NDPK-A peptide 3 = biological target: T15, NDPK-A peptide 3; experiment: as above
[3] = biological target: T17, human NDPK-A (nucleoside diphosphate …); experiment: MST, His-tagged full-length NDPK-A; column head prints 'Binding Affinity (Ka)'
[4] = biological target: T17, human NDPK-A (nucleoside diphosphate …); experiment: MST, NDPK labelled, FABP4 unlabelled
Method: as §1, §2

[5] = biological target: T16, human ADK (adenosine kinase), …; experiment: MST, one-to-one recombinant proteins, ADK labelled
Method: Additionally, one-to-one recombinant protein interaction assays were performed using Microscale Thermophoresis (MST) to independently validate the interactions between each of the proposed complex components. MST is a technology for the interaction analysis of biomolecules. MST is the directed movement of particles in a microscopic temperature gradient. Any change of the hydration shell of biomolecules due to changes in their structure/conformation results in a relative change of the movement along the temperature gradient and is used to determine binding affinities. MST allows measurement of interactions directly in solution without the need of immobilization to a surface (immobilization-free technology).
To perform this technique, proteins were desalted and buffer exchanged into PBS prior to labeling. […] Experiments were conducted independently with each of NDPK and ADK labeled with each kit (i.e., experiments were performed with lysine-labeled, cysteine-labeled, and His-labeled versions of each protein to confirm the site of labeling was not influencing detected interaction). […] Concentration of labeled proteins ranged from 12 nM to 20 nM, as determined by MST quantification to obtain a fluorescence intensity of ˜350 from each capillary tube. […]

T17 sequence (P15531 other isoform, or with tags, fused parts or gaps limits assumed): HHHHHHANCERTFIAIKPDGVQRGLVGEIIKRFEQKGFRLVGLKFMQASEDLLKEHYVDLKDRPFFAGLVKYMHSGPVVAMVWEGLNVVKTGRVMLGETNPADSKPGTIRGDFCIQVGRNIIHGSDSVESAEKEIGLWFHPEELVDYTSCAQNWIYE
T16 sequence (P55263 2-362 limits assumed): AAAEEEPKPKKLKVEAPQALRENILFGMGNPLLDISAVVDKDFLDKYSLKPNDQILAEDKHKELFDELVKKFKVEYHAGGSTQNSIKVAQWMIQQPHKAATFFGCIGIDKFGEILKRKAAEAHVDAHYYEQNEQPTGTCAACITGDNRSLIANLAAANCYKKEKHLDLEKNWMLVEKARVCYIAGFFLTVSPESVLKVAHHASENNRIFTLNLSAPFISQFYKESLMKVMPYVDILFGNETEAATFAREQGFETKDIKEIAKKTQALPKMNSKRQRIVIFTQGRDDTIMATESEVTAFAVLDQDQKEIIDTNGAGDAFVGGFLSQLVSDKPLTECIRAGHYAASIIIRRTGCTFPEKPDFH

Binder | Kd [1] | Kd [2] | binding result (NDPK-A peptide 5) | binding result (NDPK-A peptide 6) | binding result (NDPK-A peptide 7) | binding result (NDPK-A peptide 9) | binding result (NDPK-A peptide 10) | binding result (NDPK-A peptide 11) | binding result (NDPK-A peptide 12) | binding result (NDPK-A peptide 13) | binding result (NDPK-A peptide 14) | binding result (NDPK-A peptide 15) | binding result (NDPK-A peptide 1) | binding result (NDPK-A peptide 4) | Kd (NDPK-A peptide 8) | Kd (NDPK-A peptide 2) | Kd (NDPK-A peptide 3) | Kd [3] | Kd [4] | Kd [5]
B1 | ~1900 nM | ~150 nM | no binding | no binding | no binding | no binding | no binding | no binding | no binding | no binding | no binding | no binding | no binding | no binding | 69.6 nM | 15900 nM | 8980 nM | 116 nM |  | 
B2 |  |  |  |  |  |  |  |  |  |  |  |  |  |  |  |  |  |  | ~700 nM | ~7 nM
